The text below walks through data of US20140112930A1 (published 2014).

The target in one assay is T1, Biotin-hBA2 (human, biotinylated (sites not given)).
T1 construct: hBA2 consists of two dimers; also called biotinylated hBA2; human bow-Ang2
The experiment in a line: blocking ELISA, biotin-hBA2 to hTie-2-His, mean of two experiments. On the procedure: (§1) The plate was then blocked with PBS (Irvine Scientific, Santa Ana, Calif.) containing 0.5% BSA (Sigma-Aldrich Corp., St. Louis, Mo.) for one hour at room temperature. […] Human, mouse or monkey Ang-2FD protein conjugated to human IgG (Ang-2FD-hFc) were added to final concentrations of 2 nM, 8 nM, or 2 nM respectively and incubated for one hour at room temperature. The antibody/Ang-2FD-Fc mixture was then added to the plate containing hTie-2-mFc and incubated for one hour at room temperature. Detection of Ang-2FD-hFc bound to hTie-2-mFc protein was determined with Horse-Radish Peroxidase (HRP) conjugated to a-human IgG antibody (Jackson Immuno Research Lab, West Grove, Pa.) and developed by standard colorimetric response using tetramethylbenzidine (TMB) substrate (BD Biosciences, San Jose, Calif.). Absorbance was read at OD₄₅₀ for 0.1 sec.
For this experiment, human Tie-2 conjugated to a histidine tag (hTie-2-His; SEQ ID NO:526) was used in a similar fashion to the hTie-2-mFc described above. Antibody concentrations from 5 nM were serially diluted three-fold. […] An average IC₅₀ value for each antibody was calculated based on two separate experiments.

Another assay concerns the target T2, Human Ang-2FD-hFc (human).
T2 construct: also called dimeric human Ang-2FD; human Ang-2FD protein conjugated to human IgG
The experiment in a line: blocking ELISA, 16.67 nM antibody, Ang-2FD-hFc to coated hTie-2-mFc. The method, then:
as §1
(In general: In an ELISA, binding on a coated surface is turned into a signal by an enzyme label.)

The next assay has as its target T3, Mouse Ang-2FD-hFc (mouse (Mus musculus)).
T3 construct: also called dimeric mouse Ang-2FD
The assay is described as above. On the procedure:
as §1

Assay [1] addresses T4, wild-type human Ang-2 (hAng-2-WT) (human, UniProt O15123 19-496).
T4 construct: called full-length wild-type; also called Full-length wild-type human Ang-2
T4 sequence: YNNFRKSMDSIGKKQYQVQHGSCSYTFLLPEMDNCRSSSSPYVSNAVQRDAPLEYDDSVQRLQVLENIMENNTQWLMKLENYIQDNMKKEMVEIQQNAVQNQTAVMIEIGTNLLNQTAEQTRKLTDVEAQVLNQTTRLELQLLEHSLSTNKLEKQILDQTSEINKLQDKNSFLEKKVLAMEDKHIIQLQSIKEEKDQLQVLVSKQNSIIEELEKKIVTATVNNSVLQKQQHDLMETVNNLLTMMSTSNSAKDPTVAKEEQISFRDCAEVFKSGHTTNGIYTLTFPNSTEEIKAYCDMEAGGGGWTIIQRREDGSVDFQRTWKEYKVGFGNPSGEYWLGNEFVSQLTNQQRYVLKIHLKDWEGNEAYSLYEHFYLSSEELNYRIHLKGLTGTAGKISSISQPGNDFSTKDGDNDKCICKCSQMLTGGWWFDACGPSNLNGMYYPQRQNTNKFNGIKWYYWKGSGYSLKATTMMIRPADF
The experiment in a line: SPR, captured Ab.

For another assay, the target named is T5, Monomeric hAng-2FD (human, UniProt O15123 282-496).
T5 construct: also called fibrinogen-like domain of human Ang2; Human Ang-2FD
T5 sequence: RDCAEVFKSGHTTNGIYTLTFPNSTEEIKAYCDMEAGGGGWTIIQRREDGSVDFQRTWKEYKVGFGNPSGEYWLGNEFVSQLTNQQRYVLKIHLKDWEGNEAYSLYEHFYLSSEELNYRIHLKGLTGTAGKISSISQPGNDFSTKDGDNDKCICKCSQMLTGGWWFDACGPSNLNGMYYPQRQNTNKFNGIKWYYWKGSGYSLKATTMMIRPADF
The assay can be described thus: SPR, captured Ab.

Assay [2] concerns the target T6, Dimeric Human Ang-2FD conjugated to human IgG1 (human).
T6 construct: also called Human Ang-2FD-hFc; hAng-2FD-hFc
The assay can be described thus: SPR, captured Ab, RT. The essentials: (§2)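 Antibody captured on amine-coupled goat anti-mouse IgG, anti-human κ or anti-human IgG polyclonal surfaces on a CM5 chip; antigen binding and dissociation followed in real time at room temperature. KD and complex dissociation half-life derived by kinetic analysis.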
(In general: Surface plasmon resonance follows binding to a sensor surface in real time, without labels.)

Assay [3] concerns the target T7, Dimeric Mouse Ang-2FD conjugated to human IgG1 (mouse (Mus musculus); human).
T7 construct: also called Mouse Ang-2FD-hFc
The experiment in a line: SPR, captured Ab, RT. The essentials: as §2

In assay [4] the target is T8, Dimeric Monkey Ang-2FD conjugated to human IgG1 (monkey (Macca fascicularis); human).
T8 construct: also called Monkey Ang-2FD-hFc
The experiment in a line: SPR, captured Ab, RT. The essentials:
as §2

Assay [5] concerns the target T6, Dimeric Human Ang-2FD conjugated to …. The assay can be described thus: competition ELISA, 16.67 nM Ab, coated hTie-2-mFc. The method, then: as §1
Assay [6] has as its target T7, Dimeric Mouse Ang-2FD conjugated to …. The assay can be described thus: competition ELISA, 16.67 nM Ab, coated hTie-2-mFc. On the procedure: as §1
The target of assay [7] is T8, Dimeric Monkey Ang-2FD conjugated to …. The assay can be described thus: competition ELISA, 16.67 nM Ab, coated hTie-2-mFc. On the procedure:
as §1

B1: H1M724N (antibody, V domains shown)
VH: QVQLVESGGGVVQPGRSLRLSCAASGFTLSNYGMHWVRQAPGKGLEWVAVIWHDGSNTYYADSVKGRFTISRDNSKNTLYLQMNSLRAEDTAVYYCTREGLDFWSGYYPNWFDPWGQGTLVTVSS
VL: DIQMTQSPSSLSASVGDRVTITCRASQGIRNDLGWYQQKPGKAPKRLIYAASNLQGGVPSRFSGSGSGTEFTLTISSLQPEDFAAYYCLQHNIYPLTFGGGTKVEIK
Consider B1, for which the 50% inhibitory concentration (IC50) with Biotin-hBA2 amounted to 9.72 pM.

B2: H1M732N (antibody, V domains shown)
VH: EVQLVESGGGLVRPGGSLRLSCAASGFTFTNAWMSWVRQAPGKGLEWIGQIKSKTDGGTIDYAAPVKGRFTVSRDDSENTLFLQMNSLKTEDTAVYYCAGNWNYVDFDYWGQGTLVTVSS
VL: DIQMTQSPSSLSASVGDRVTITCRASQDIRNDLGWYQQKPGKAPKRLIYAASSLQGGVPSRFSGSGSGTEFTLTISSLQPEDFATYYCLQHNSYPFTFGPGTKVDIK
On to B2, for which, in the assay with Biotin-hBA2, the 50% inhibitory concentration (IC50) worked out at 82.2 pM.

B3: H1H707P (antibody, human IgG1, V domains shown)
VH: QVQLVESGGGVVQPGRSLRLSCAASGFTFSSYGMHWVRQAPDKGLEWVAVKWDDGSNKYYADSVKGRFTISRDNSKNTLYLQMNSLRAEDTAVYYCAREGPYDFYSGYGAFDIWGQGTMVTVSS
VL: not shown
notes: Human IgG1
For B3, the “Percent Blocking of Ang-2FD Binding to Tie-2” value in the assay with Human Ang-2FD-hFc was determined as 95.1%; in the assay with Mouse Ang-2FD-hFc, 93.8%.

B4: H2M742N (antibody, V domains shown)
VH: DVQLLESGGDLVQPGGSLRLSCEASGFTFRNYVMIWVRQAPGKGLEWVSGISNSGGTTHYTDSVKGRFTISRDNSKNTLYLQINSLRAEDTAVYYCAKGYLDTSLIEGNWFDPWGQGTLVTVSS
VL: NIVMTQSPLSLPVTPGEPASISCRSSQSLLHSNGFNYLNWFLQKPGQSPQLLIYLGSNRASGVPDKFSGSGSGTDFTLNINRVEAEDVGIYFCMQTLQTPLTFGGGTKVEIK
notes: also called H1M742N
For B4, inhibition with Biotin-hBA2 was half-maximal at 9.65 pM (IC50).

B5: H1M728N (antibody, V domains shown)
VH: EVQLVESGGDLVQPGGSLRLSCTASGFTFSKYWMTWVRQAPGRGLEWVANIKEDGNEKYFLDSVKGRFTISRDNAKDLLFLQMNSLRGEDTAVYYCVRDRGIEVAGPFDYWGQGTLVTVSS
VL: DIQMTQSPSTLSASVGDRVTVTCRASQTIINWLAWYQQKPGKAPKLLISKASSLESGVPSRFSGSGSGTEFTLTISSLQPDDFATYYCQQYNRYWTFGQGTMVEIK
In turn, B5 yielded a concentration for half-maximal inhibition (IC50) with Biotin-hBA2 of 14.1 pM.

B6: H2M730N (antibody, V domains shown)
VH: EVQLVESGGGLVQPGGSLRLSCAASGFAFRSYWMTWVRQAPGKGLEWVANIQQDGNDKYYVDSVKGRFTISRDNAKNSLYLQMNSLRAEDTAVYYCARDTGIAEAGPFDYWGQGTLVTVSS
VL: DIQMTQSPSTLSASVGDRVSITCRASQTIISWLAWYQQKPGKAPRLLIYKASSLESGVPSRFSGSGSGTEFTLTINSLQPDDFATYYCQQYNRYWTFGQGTKVEIK
In the assay with Biotin-hBA2, B6 had a concentration for half-maximal inhibition (IC50) of 14.6 pM.

B7: H2M749N (antibody, V domains shown)
VH: QVQLVESGGGVVQPGRSLRLSCAASGFTFSSYGMHWVRQAPGKGLEWVAVIWYDEFNKYYADSVKGRFTISRDNSKNTLYLQMNSLRAEDTAVYYCARERESGYSYGFDYWGQGTLVTVSS
VL: EIVMTQSPATLSVSPGERATLSCRAGQSVSSNLAWYQQKPGQAPRLLIYGASTRATGIPARFSGSGSGTEFTLTISSLQSEDFAVYYCQQYNNWWTFGQGTKVEIK
notes: also called H1M749N; H1M749
In the case of B7, the Kd in assay [1] worked out at 49 pM; with Monomeric hAng-2FD it was 1380 pM; in assay [2], 165 pM; in assay [3], 529 pM; in assay [4], 1500 pM. In addition, the T1/2 in [1] came out at 479 min; with Monomeric hAng-2FD it was 27.9 min; in assay [2], 42.9 min; in assay [3] it was 25.5 min; in assay [4] it was 40.9 min. Moreover, the “Percent Blocking of Ang-2FD Binding to Tie-2” value in assay [5] was determined as 99.5%; in [6] it was 97.3%; in [7], 97.4%.

The term IC50 denotes the concentration that gives 50% inhibition. By Kd is commonly meant the free concentration of one partner at which half of the binding sites on the other are occupied at equilibrium, for simple one-to-one binding.
